Test results: patent publication US20210206877A1 (Genentech, published 2021)
Like-named read-outs stand apart in the source and are kept apart here.

What was measured:
Test in all cases: cell-based or functional assay
[1] = biological target: BACE1 ECD (as used in the enzyme activity assay) (UniProt P56817 22-457, limits assumed)
[2] = biological target: T1, BACE1 endogenous to primary cortical neurons from E16.5 CD1 mice (mouse, UniProt P56818 46-501)
[3] = biological target: human BACE1 ECD (human, UniProt P56817)
[4] = biological target: murine BACE1 ECD
[5] = biological target: T1, BACE1 endogenous to primary cortical …; remark: listed apart in the source
For % inhibition, FRET short substrate assay (negative = activation) in this document: test concentration or dose not given here.

T1 sequence (P56818 46-501): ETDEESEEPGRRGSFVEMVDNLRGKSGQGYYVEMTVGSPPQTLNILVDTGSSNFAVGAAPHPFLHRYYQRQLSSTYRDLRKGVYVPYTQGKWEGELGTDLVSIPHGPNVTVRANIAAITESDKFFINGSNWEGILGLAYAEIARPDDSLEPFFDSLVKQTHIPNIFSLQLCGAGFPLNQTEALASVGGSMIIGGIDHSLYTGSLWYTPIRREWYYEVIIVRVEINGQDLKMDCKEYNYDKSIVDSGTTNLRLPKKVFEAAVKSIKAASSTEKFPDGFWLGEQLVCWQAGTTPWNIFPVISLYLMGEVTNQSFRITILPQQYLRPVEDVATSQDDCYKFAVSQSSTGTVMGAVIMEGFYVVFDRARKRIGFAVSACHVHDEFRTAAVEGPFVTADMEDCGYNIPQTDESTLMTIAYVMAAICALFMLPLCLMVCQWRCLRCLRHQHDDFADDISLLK
murine BACE1 ECD, sequence (single chain, as listed by the source limits assumed): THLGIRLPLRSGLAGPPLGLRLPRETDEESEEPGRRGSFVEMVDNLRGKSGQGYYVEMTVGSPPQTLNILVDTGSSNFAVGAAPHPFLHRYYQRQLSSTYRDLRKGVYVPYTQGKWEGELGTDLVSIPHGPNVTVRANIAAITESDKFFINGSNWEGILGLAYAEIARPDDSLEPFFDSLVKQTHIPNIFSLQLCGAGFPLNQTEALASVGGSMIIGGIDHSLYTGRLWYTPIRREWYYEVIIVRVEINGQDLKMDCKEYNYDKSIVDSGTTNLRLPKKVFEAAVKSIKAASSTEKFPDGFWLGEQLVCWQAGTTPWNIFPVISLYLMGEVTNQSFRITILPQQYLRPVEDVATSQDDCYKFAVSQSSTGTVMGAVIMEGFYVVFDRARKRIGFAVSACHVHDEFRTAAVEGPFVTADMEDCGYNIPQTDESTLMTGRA
human BACE1 ECD, sequence (P56817 22-457): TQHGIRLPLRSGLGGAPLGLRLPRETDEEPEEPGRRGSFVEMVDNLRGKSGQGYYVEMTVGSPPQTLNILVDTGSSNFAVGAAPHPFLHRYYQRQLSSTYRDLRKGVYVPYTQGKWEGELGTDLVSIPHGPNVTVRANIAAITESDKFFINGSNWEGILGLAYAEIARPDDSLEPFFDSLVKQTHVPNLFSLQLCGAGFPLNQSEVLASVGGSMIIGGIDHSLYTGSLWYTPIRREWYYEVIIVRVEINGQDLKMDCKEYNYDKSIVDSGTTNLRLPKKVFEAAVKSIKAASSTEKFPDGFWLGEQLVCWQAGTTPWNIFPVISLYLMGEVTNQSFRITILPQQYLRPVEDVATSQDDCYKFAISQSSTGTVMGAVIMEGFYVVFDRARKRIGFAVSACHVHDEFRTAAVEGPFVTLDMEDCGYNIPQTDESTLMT
BACE1 ECD (as used in the enzyme activity assay), sequence (P56817 22-457 limits assumed): as the sequence (P56817 22-457) above

| Binder | EC50, FRET short substrate assay [1] [nM] | EC50, HTRF long substrate assay [1] [nM] | IC50, Abeta x-40 in mouse cortical neurons (row 5896*, second run) [2] [nM] | max % inhibition, Abeta x-40 in mouse cortical neurons [2] [%] | % inhibition, FRET short substrate assay (negative = activation) [3] [%] | % inhibition, FRET short substrate assay (negative = activation) [4] [%] | max % inhibition, Abeta x-40 in mouse cortical neurons [5] [%] | IC50, Abeta x-40 in mouse cortical neurons (row 5894*, second run) [2] [nM] |
| --- | --- | --- | --- | --- | --- | --- | --- | --- |
| 5896 (antibody, V domains shown) VH: QLQLQESGPGLVKPSETLSLTCTVSGGSISSSSYYWGWIRQPPGKGLEWIGSIYRSGSTYYNPSLKSRVTISVDTSKNQFSLKLSSVTAADTAVYYCARVGHGISYFDLWGRGTLVTVSS VL: EIVLTQSPATLSLSPGERATLSCRASQSVSSYLAWYQQKPGQAPRLLIYDASNRATGIPARFSGSGSGTDFTLTISSLEPEDFAVYYCQQSLTWPPRTFGGGTKVEIK | 3.35 | 3.46 | 5.72 | 65 | -4 | -3 |  |  |
| 6310 (antibody, V domains shown) VH: QLQLQESGPGLVKPSETLSLTCTVSGGSISWSSYYWSWIRQPPGKGLEWIGSIYRSGRTYYNPSLKSRVTISVDTSKNQFSLKLSSVTAADTAVYYCARVGHGINYFDLWGRGTLVTVSS VL: EIVLTQSPATLSLSPGERATLSCRASQSVSSYLAWYQQKPGQAPRLLIYDASNRATGIPARFSGSGSGTDFTLTISSLEPEDFAVYYCQQSVTWPPRTFGGGTKVEIK |  |  |  |  |  |  | 71 |  |
| 6308 (antibody, V domains shown) VH: QLQLQESGPGLVKPSETLSLTCTVSGGSISWSSYYWSWIRQPPGKGLEWIGSIYRSGRTYYNPSLKSRVTISVDTSKNQFSLKLSSVTAADTAVYYCARVGHGINYFDLWGRGTLVTVSS VL: EIVLTQSPATLSLSPGERATLSCRASQSVSSYLAWYQQKPGQAPRLLIYDASKRATGIPARFSGSGSGTDFTLTISSLEPEDFAVYYCQQSLVWPPRTFGGGTKVEIK |  |  |  |  |  |  | 60 |  |
| 6307 (antibody, V domains shown) VH: QLQLQESGPGLVKPSETLSLTCTVSGGSISWSSYYWSWIRQPPGKGLEWIGSIYRSGRTYYNPSLKGRVTISVDTSKNQFSLKLSSVTAADTAVYYCARVGHGINYFDLWGRGTLVTVSS VL: EIVLTQSPATLSLSPGERATLSCRASQSVSSYLAWYQQKPGQAPRLLIYDASNRATGIPARFSGSGSGTDFTLTISSLEPEDFAVYYCQQSIVWPPRTFGGGTKVEIK |  |  |  |  |  |  | 68 |  |
| 5897 (antibody, V domains shown) VH: QLQLQESGPGLVKPSETLSLTCTVSGGSISWSSYYWSWIRQPPGKGLEWIGSIYKSGRTYYNPSLKSRVTISVDTSKNQFSLKLSSVTAADTAVYYCARVGHGISYFDLWGRGTLVTVSS VL: EIVLTQSPATLSLSPGERATLSCRASQSVSSYLAWYQQKPGQAPRLLIYDASNRATGIPARFSGSGSGTDFTLTISSLEPEDFAVYYCQQSLTWPPRTFGGGTKVEIK | 0.528 | 1.39 |  | 62 | 1 | -3 |  |  |
| 6309 (antibody, V domains shown) VH: QLQLQESGPGLVKPSETLSLTCTVSGGSISWSSYYWSWIRQPPGKGLEWIGSIYRSGRTYYNPSLKSRVTISVDTSKNQFSLKLSSVTAADTAVYYCARVGHGINYFDLWGRGTLVTVSS VL: EIVLTQSPATLSLSPGERATLSCRASQSVSSYLAWYQQKPGQAPRLLIYDASNRATGIPARFSGSGSGTDFTLTISSLEPEDFAVYYCQQSITWPPRTFGGGTKVEIK |  |  |  |  |  |  | 60 |  |
| 5894 (antibody, V domains shown) VH: QVQLVQSGAEVKKPGSSVKVSCKASGGTFSGYAISWVRQAPGQGLEWMGNIIPGFGTANYAQKFQGRVTITADESTSTAYMELSSLRSEDTAVYYCARSGGTKYGMLDVWGQGTMVTVSS VL: EIVMTQSPATLSVSPGERATLSCRASQSVGSNLAWYQQKPGQAPRLLIYGASTRATGIPARFSGSGSGTEFTLTISSLQSEDFAVYYCQQLYTWPPRTFGGGTKVEIK | 8.58 | 1.79 |  | 78 | 69 | 69 |  | 5.43 |
| 6303 (antibody, V domains shown) VH: QVQLVQSGAEVKKPGSSVKVSCKASGGTLSGYAISWVRQAPGQGLEWMGNIIPGFGTANYAQKSQGRVTITADESTSTAYMELSSLRSEDTAVYYCARSGGTRYGMLDVWGQGTMVTVSS VL: EIVMTQSPATLSVSPGERATLSCRASQSVSSNLAWYQQKPGQAPRLLIFGASTRATGIPARFSGSGSGTEFTLTISSLQSEDFAVYYCQQLLTWPPRTFGGGTKVEIK |  |  |  |  |  |  | 76 |  |
| 6300 (antibody, V domains shown) VH: QVQLVQSGAEVKKPGSSVKVSCKASGGTLSGYAISWVRQAPGQGLEWMGNIIPGFGTANYAQKSQGRVTITADESTSTAYMELSSLRSEDTAVYYCARSGGTRYGMLDVWGQGTMVTVSS VL: EIVLTQSPATLSVSPGERATLSCRASQSVGSNLAWYQQKPGQAPRLLIYGASTRATGIPARFSGSGSGTEFTLTISSLQSEDFAVYYCQQSFLWPPRTFGGGTKVEIK |  |  |  |  |  |  | 71 |  |
| 5892 (antibody, V domains shown) VH: QVQLVQSGAEVKKPGSSVKVSCKASGGTFSSYAISWVRQAPGQGLEWMGNIIPIFGTATYAQKFQGRVTITADESTSTAYMELSSLRSEDTAVYYCARSGGTKYGMLDVWGQGTMVTVSS VL: EIVMTQSPATLSVSPGERATLSCRASQSVGSNLAWYQQKPGQAPRLLIYGASTRATGIPARFSGSGSGTEFTLTISSLQSEDFAVYYCQQLYTWPPRTFGGGTKVEIK | 16.4 | 1.19 |  | 73 | 64 | 64 |  |  |
| 5893 (antibody, V domains shown) VH: QVQLVQSGAEVKKPGSSVKVSCKASGGTFRGYAISWVRQAPGQGLEWMGNIIPGFGTANYAQKFQGRVTITADESTSTAYMELSSLRSEDTAVYYCARSGGTKYGMLDVWGQGTMVTVSS VL: EIVMTQSPATLSVSPGERATLSCRASQSVGSNLAWYQQKPGQAPRLLIYGASTRATGIPARFSGSGSGTEFTLTISSLQSEDFAVYYCQQLYTWPPRTFGGGTKVEIK | 8.84 | 3.59 |  | 73 | 72 | 69 |  |  |
| 5891 (antibody, V domains shown) VH: QVQLVQSGAEVKKPGSSVKVSCKASGGTFSSYAISWVRQAPGQGLEWMGNIIPIFGPANYAQKFQGRVTITADESTSTAYMELSSLRSEDTAVYYCARSGGTKYGMLDVWGQGTMVTVSS VL: EIVMTQSPATLSVSPGERATLSCRASQSVGSNLAWYQQKPGQAPRLLIYGASTRATGIPARFSGSGSGTEFTLTISSLQSEDFAVYYCQQLYTWPPRTFGGGTKVEIK | 12.4 | 3.03 |  | 78 | 71 | 70 |  |  |
| 6305 (antibody, V domains shown) VH: QVQLVQSGAEVKKPGSSVKVSCKASGGTLSGYAISWVRQAPGQGLEWMGNIIPGFGTANYAQKSQGRVTITADESTSTAYMELSSLRSEDTAVYYCARSGGTRYGMLDVWGQGTMVTVSS VL: EIVLTQSPATLSVSPGERATLSCRASQSVGSNLAWYQQKPGQAPRLLIYGASTRATGIPARFSGSGSGTEFTLTISSLQSEDFAVYYCQQSFVWPPRTFGGGTKVEIK |  |  |  |  |  |  | 67 |  |
| 5888 (antibody, V domains shown) VH: QVQLVQSGAEVKKPGSSVKVSCKASGGTFWKYAISWVRQAPGQGLEWMGNIIPGFGTANYAQKFRGRVTITADESTSTAYMELSSLRSEDTAVYYCARSGGTKYGMLDVWGQGTMVTVSS VL: EIVMTQSPATLSVSPGERATLSCRASQSVSSNLAWYQQKPGQAPRLLIYGASTRATGIPARFSGSGSGTEFTLTISSLQSEDFAVYYCQQLILWPPRTFGGGTKVEIK | 0.602 | 2.5 |  | 82 | -86 | -183 |  |  |
| 5890 (antibody, V domains shown) VH: QVQLVQSGAEVKKPGSSVKVSCKASGGTFSSYAISWVRQAPGQGLEWMGNIIPGFGTANYAQKFQGRVTITADESTSTAYMELSSLRSEDTAVYYCARSGGTKYGMLDVWGQGTMVTVSS VL: EIVMTQSPATLSVSPGERATLSCRASQSVGSNLAWYQQKPGQAPRLLIYGASTRATGIPARFSGSGSGTEFTLTISSLQSEDFAVYYCQQLYTWPPRTFGGGTKVEIK | 32.4 | 4.06 |  | 77 | 66 | 69 |  |  |
| 6299 (antibody, V domains shown) VH: QVQLVQSGAEVKKPGSSVKVSCKASGGTLSGYAISWVRQAPGQGLEWMGNIIPGFGTANYAQKSQGRVTITADESTSTAYMELSSLRSEDTAVYYCARSGGTRYGMLDVWGQGTMVTVSS VL: EIVMTQSPATLSVSPGERATLSCRASQSVGSNLAWYQQKPGQAPRLLIYGASTRATGIPARFSGSGSGTEFTLTISSLQSEDFAVYYCQQSYLWPPRTFGGGTKVEIK |  |  |  |  |  |  | 70 |  |
